B1: EHEE_rd4_0086 (parent)
chain: EIHIRTNGEEQARKVYKMLAKRNYDVKIEQHNGQWVVTAS
B2: HHH_rd1_0493 (parent)
chain: RDEDEKEKIKEALKRGNEDKAKEIAKRANVSPEEYERLRKEAE

Variants of: B1
Experiment: folding stability dG (cDNA display proteolysis); higher = more stable
Details: PBS, room temperature

Variant	folding stability dG [kcal/mol]
V36E	0.934
V36R	1.07
V36W	2.3
V36N	0.466
V36A	0.857
V36K	0.658
V36S	1.23
V36I	2.15
V36D	0.384
V36H	1.56
V36Q	1.07
V36F	2.06
V36T	1.39
V36Y	2.13
V36M	1.58
V36L	1.78
V36G	0.463
Q30K	1.88
Q30T	1.49
Q30G	0.999
Q30N	2.01
Q30S	1.58
Q30F	2.38
Q30Y	2.3

Variant	folding stability dG [kcal/mol]
Q30I	2.1
Q30V	2.22
Q30W	1.8
Q30L	1.93
Q30H	1.93
Q30D	1.07
Q30R	1.81
Q30E	1.85
Q30M	1.81
Q30P	0.717
Q30C	2.32
Q30A	1.33
V37L	0.844
V37I	1.79
V37F	-0.019
V37W	-0.025
V37M	0.044
W35Y	0.915
W35L	-0.221
W35I	-0.153
W35V	-0.525
W35M	-0.847
W35T	-0.759
W35F	1.01

Variant	folding stability dG [kcal/mol]
E29G	1.48
E29K	1.6
E29S	1.99
E29H	1.78
E29Q	1.82
E29N	1.57
E29M	1.93
E29L	1.75
E29I	1.97
E29V	1.98
E29R	1.68
E29W	2.33
E29A	1.8
E29D	1.26
E29F	2.44
E29T	2.02
E29Y	2.48
H31R	1.98
H31T	1.71
H31V	2.24
H31K	2.04
H31E	1.85
H31I	2.43
H31N	1.72

Variant	folding stability dG [kcal/mol]
H31G	0.849
H31Q	1.95
H31C	2.09
H31P	0.168
H31A	1.67
H31D	1.78
H31L	2.12
H31Y	2.03
H31S	1.78
H31W	2.15
H31M	2.03
H31F	2.11
K27S	1.5
K27L	1.12
K27H	1.66
K27G	0.682
K27R	1.95
K27V	1.45
K27M	1.32
K27Y	1.45
K27W	1.52
K27T	1.68
K27I	1.45
K27F	1.33

Variant	folding stability dG [kcal/mol]
K27N	1.16
K27Q	1.44
T38Q	0.832
T38N	0.617
T38M	1.67
T38F	1.72
T38E	0.543
T38I	2.59
T38H	1.64
T38R	1.78
T38D	0.023
T38W	1.72
T38Y	1.75
T38A	0.835
T38L	1.75
T38V	2.25
T38K	1.71
T38S	1.51
T38G	0.134
A39M	1.98
A39N	0.642
A39V	2.51
A39E	0.112
A39S	1.21

Variant	folding stability dG [kcal/mol]
A39P	0.297
A39K	0.724
A39Y	2.29
A39F	2.32
A39T	1.41
A39G	1.44
A39H	1.11
A39L	2.36
A39W	2.2
A39I	2.85
A39R	0.961
A39D	0.179
A39Q	0.463
G33W	0.42
G33S	1.08
G33H	1.49
G33Q	0.937
G33E	1.21
G33N	1.24
G33V	0.374
G33R	0.801
G33D	1.35
G33F	0.875
G33L	0.714

Variant	folding stability dG [kcal/mol]
G33Y	0.642
G33A	0.852
G33K	0.996
G33M	0.969
G33I	0.069
G33T	0.841
Q34T	1.95
Q34I	2.27
Q34W	2.31
Q34N	1.52
Q34A	1.77
Q34H	2.04
Q34M	2.09
Q34S	1.67
Q34F	2.5
Q34L	1.86
Q34G	1.58
Q34D	1.51
Q34R	1.59
Q34K	1.61
Q34E	1.87
Q34V	2.27
Q34P	-0.941
Q34Y	2.55

Variant	folding stability dG [kcal/mol]
I28V	1.29
I28L	1.56
I28Y	0.682
I28W	0.131
I28T	-0.114
I28Q	-0.461
I28F	0.516
I28R	-0.747
I28M	1.69
I28S	-0.437
I28A	0.154
I28K	-0.269
N32F	1.45
N32M	1.64
N32K	1.54
N32H	1.55
N32R	1.3
N32Q	1.65
N32I	0.67
N32T	0.816
N32W	1.12
N32D	1.9
N32L	1.51
N32S	1.38

Variant	folding stability dG [kcal/mol]
N32G	1.86
N32P	0.291
N32V	0.762
N32Y	1.38
N32A	1.7
N32E	1.76
S40G	1.33
S40R	2.25
S40E	1.02
S40W	2.2
S40H	1.77
S40F	2.04
S40N	1.65
S40T	2.08
S40A	1.54
S40Q	1.57
S40P	1.16
S40K	2.19
S40D	0.806
S40L	1.78
S40V	1.98
S40Y	1.96
S40M	1.81
S40I	2.05

Variants of: B2
Experiment: as above
Details: PBS, room temperature

Variant	folding stability dG [kcal/mol]
D2K	2.82
D2Y	3.38
D2A	2.87
D2F	3.22
D2Q	3.15
D2P	3.06
D2I	3.21
D2N	3
D2H	3.05
D2C	2.94
D2V	3.17
D2R	2.79
D2L	3.39
D2T	3.03
D2M	2.86
D2W	3.17
D2S	2.71
D2E	3.11
D2G	2.95
R1Q	3.1
R1E	3.02
R1H	3.11
R1Y	3.11
R1N	3.16

Variant	folding stability dG [kcal/mol]
R1A	3.23
R1M	3.03
R1S	3.15
R1K	3.12
R1C	2.64
R1D	3.13
R1G	3.1
R1F	3.01
R1V	3.22
R1L	3.08
R1T	3.28
R1P	3.19
R1I	3.2
R1W	3.04
D4H	2.82
D4I	2.95
D4N	2.89
D4M	2.96
D4S	3.03
D4Q	2.88
D4K	2.81
D4C	2.96
D4V	2.88
D4G	2.8

Variant	folding stability dG [kcal/mol]
D4F	2.73
D4P	2.48
D4L	3.01
D4A	2.83
D4T	2.91
D4W	3.02
D4R	2.88
D4Y	2.9
D4E	2.98
E5A	3.7
E5M	3.33
E5I	4.07
E5S	3.02
E5Y	4.39
E5K	2.24
E5C	2.42
E5W	4.45
E5H	3.3
E5F	4.03
E5P	3.46
E5L	3.6
E5R	2.1
E5D	3
E5N	2.71

Variant	folding stability dG [kcal/mol]
E5T	3.37
E5V	4.07
E5G	2.08
E5Q	2.87
K6I	3.24
K6L	3.25
K6T	2.61
K6H	3.07
K6W	3.32
K6V	2.74
K6M	3.11
K6R	3.3
K6C	1.8
K6Q	2.39
K6D	1.85
K6P	1.72
K6N	2.53
K6G	2.46
K6E	2.27
K6S	2.56
K6Y	3.4
K6A	2.57
K6F	3.23
E3V	2.76

Variant	folding stability dG [kcal/mol]
E3P	2.79
E3H	3
E3G	2.88
E3D	3.11
E3Q	3.06
E3A	2.88
E3Y	3.01
E3R	2.93
E3K	2.93
E3N	3
E3L	2.89
E3W	3
E3I	2.75
E3T	2.94
E3F	2.93
E3M	2.81
E3S	2.89
E3C	2.57
E7F	3
E7G	2.62
E7A	3.08
E7D	2.7
